Assay results reported in the supplement of paper PMC10126150.
± gives the standard deviation of the averaged measurements.

Tested on: ATP
Assay: switch fluorescence ratio, 500 uM ATP over buffer (Cy3 cluster intensity, sum of 5 cycles each) (fold (ratio)); higher = stronger signal-on switching upon ATP binding; sequences stand for … in TCGTCGGCAGCGTCAGATGTGTATAAGAGACAGTTTTTTTTTTTTTTTTTTTTTTTTT…TC
Conditions: aptamer strand: ATP DNA aptamer (quencher-CACCTGGGGGAGTATTGCGGAGGAAGG + anchor), 100 nM annealed; ATP concentration: 500 uM
In short: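 For every switch-domain sequence, the fluorescence ratio is the mean of per-cluster values, each being summed target-cycle Cy3 intensity over summed buffer-cycle Cy3 intensity. Clusters outside 100-1000 RFU were excluded. On a modified Illumina MiSeq flow-cell, the Cy3-labelled switching-strand clusters were annealed to 100 nM quencher-labelled ATP aptamer, imaged in selection buffer and then after 15 min with 500 uM ATP at 22 °C. Five such cycles were run, with NaOH stripping and re-annealing between them.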
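Also: ATP exposure 15 min at 22 °C before imaging.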

## ATTTTCTTCA
  switch fluorescence ratio: 1.02 ± 0.016

## TCCAACTGCT
  switch fluorescence ratio: 1.037 ± 0.0035

## GAGACAGTTA
  switch fluorescence ratio: 0.992 ± 0.014

## CAGTTGAACT
  switch fluorescence ratio: 1.0209 ± 0.00023

## GGCTTAGAAT
  switch fluorescence ratio: 0.97374 ± 0.00014

## AGTTCGGATG
  switch fluorescence ratio: 1 ± 0.057

## TTGTTGAATT
  switch fluorescence ratio: 0.98 ± 0.042

## TCACAGGGGG
  switch fluorescence ratio: 1.14 ± 0.12

## CGTAGTGAAG
  switch fluorescence ratio: 1.03 ± 0.037

## CATGTATGGG
  switch fluorescence ratio: 0.9833 ± 0.0095

## AATACGAGAG
  switch fluorescence ratio: 1.03 ± 0.019

## ATCAGATAGC
  switch fluorescence ratio: 0.977 ± 0.018

## ATGTTGGGGT
  switch fluorescence ratio: 1 ± 0.029

## GTGGTGAGGA
  switch fluorescence ratio: 0.953 ± 0.038

## TAATAATTCT
  switch fluorescence ratio: 0.99 ± 0.019

## GCGTCGATTA
  switch fluorescence ratio: 0.96 ± 0.015

## CGTTGCAAAG
  switch fluorescence ratio: 1.03 ± 0.022

## TGGAATAATT
  switch fluorescence ratio: 1.003 ± 0.0081

## CGGGTTGCCT
  switch fluorescence ratio: 0.999 ± 0.028

## TTTTTCCTCT
  switch fluorescence ratio: 1.036 ± 0.0026

## TTAAGACCAC
  switch fluorescence ratio: 1.01 ± 0.012

## TCGTGGTGTT
  switch fluorescence ratio: 1.03 ± 0.021

## GGTAGGGATC
  switch fluorescence ratio: 1.017 ± 0.0042

## AGGAGAGTCA
  switch fluorescence ratio: 0.9825 ± 0.0036

## GATGGGGATT
  switch fluorescence ratio: 1.04 ± 0.069

## ATTCTCCTTG
  switch fluorescence ratio: 1 ± 0.017

## AAATTGTTTG
  switch fluorescence ratio: 0.989 ± 0.041

## AGGGCGTATT
  switch fluorescence ratio: 0.974 ± 0.026

## GAGAAAGTGG
  switch fluorescence ratio: 0.9924 ± 0.001

## AGGCACGCGC
  switch fluorescence ratio: 1.01 ± 0.013

## TTGGGAATCC
  switch fluorescence ratio: 1.03 ± 0.12

## GTTGTGCTGA
  switch fluorescence ratio: 1.02 ± 0.0085

## CAAAGCATCA
  switch fluorescence ratio: 1.05 ± 0.029

## AGGGGTAAGT
  switch fluorescence ratio: 0.981 ± 0.011

## CTGTTGCCTG
  switch fluorescence ratio: 0.974 ± 0.041

## TCGAGGGGAG
  switch fluorescence ratio: 0.978 ± 0.016

## CGGCTGAATT
  switch fluorescence ratio: 1 ± 0.003

## GGAAAAATGA
  switch fluorescence ratio: 1 ± 0.034

## AAAAGTTGCG
  switch fluorescence ratio: 0.9679 ± 0.0076

## TTTGCAGGGT
  switch fluorescence ratio: 1.03 ± 0.025

## GGTGATCGGC
  switch fluorescence ratio: 0.986 ± 0.029

## ATGATTGGCA
  switch fluorescence ratio: 0.99 ± 0.026

## ATTCATTGGG
  switch fluorescence ratio: 0.9872 ± 0.0075

## TTTCTGCTTT
  switch fluorescence ratio: 1.04 ± 0.057

## TGCGTGCTGG
  switch fluorescence ratio: 0.985 ± 0.022

## CGCCTTTACC
  switch fluorescence ratio: 1.18 ± 0.013

## ACATTAGTTA
  switch fluorescence ratio: 1.05 ± 0.033

## CTGGTCGGCT
  switch fluorescence ratio: 1.09 ± 0.014

## GCAATCATTC
  switch fluorescence ratio: 1.18 ± 0.087

## AGAATCAGGT
  switch fluorescence ratio: 0.9701 ± 0.0014

## GGGCCACGGA
  switch fluorescence ratio: 1.01 ± 0.048

## TTTATTCTCT
  switch fluorescence ratio: 1.01 ± 0.019

## CGGGGGACTG
  switch fluorescence ratio: 1.04 ± 0.039

## CAATTGGGGA
  switch fluorescence ratio: 0.995 ± 0.029

## GCCGGCTTTC
  switch fluorescence ratio: 1.01 ± 0.048

## CAGAGTTTTA
  switch fluorescence ratio: 1.02 ± 0.015

## GTAATCGGCA
  switch fluorescence ratio: 1.02 ± 0.022

## GTTCACCAAT
  switch fluorescence ratio: 1 ± 0.07

## AGATTGCCGT
  switch fluorescence ratio: 1.01 ± 0.068

## AATGTCGCGA
  switch fluorescence ratio: 1 ± 0.025

## GCATGCGGCT
  switch fluorescence ratio: 1.03 ± 0.1

## CATTTATCCT
  switch fluorescence ratio: 1.07 ± 0.024

## CGATAAAGAG
  switch fluorescence ratio: 1.02 ± 0.013

## TCAAAATGTG
  switch fluorescence ratio: 0.958 ± 0.015

## AATGCGGTAT
  switch fluorescence ratio: 1.01 ± 0.023

## ATGGCCGGGA
  switch fluorescence ratio: 0.999 ± 0.016

## GCAGTTGGGT
  switch fluorescence ratio: 0.986 ± 0.028

## CCGTCTACGC
  switch fluorescence ratio: 1.16 ± 0.048

## AATAACCAGT
  switch fluorescence ratio: 1.02 ± 0.016

## TCAGTTTTAT
  switch fluorescence ratio: 0.9726 ± 0.0074

## ATGTTGTGGT
  switch fluorescence ratio: 0.987 ± 0.031

## TGGGGGTGCT
  switch fluorescence ratio: 1 ± 0.013

## GGAAGTGGGC
  switch fluorescence ratio: 1.0283 ± 0.00079

## CGGTCTTCAT
  switch fluorescence ratio: 0.9903 ± 0.00043

## GGGGCTTTCC
  switch fluorescence ratio: 1.09 ± 0.052

## AGTTCGCTTT
  switch fluorescence ratio: 0.993 ± 0.028

## GAGGTAGTGG
  switch fluorescence ratio: 0.968 ± 0.027

## GTTGGCTTTC
  switch fluorescence ratio: 1.019 ± 0.0077

## CAATGGGTCT
  switch fluorescence ratio: 0.9523 ± 0.0028

## TGGCAACACC
  switch fluorescence ratio: 1.94 ± 1.2

## ACGGGTTCCT
  switch fluorescence ratio: 1 ± 0.025

## CATATGGGCG
  switch fluorescence ratio: 1.03 ± 0.064

## CCGCCGAGGT
  switch fluorescence ratio: 1.68 ± 0.034

## GTTAGTGGGC
  switch fluorescence ratio: 0.971 ± 0.037

## GGCTTGCAAC
  switch fluorescence ratio: 1.03 ± 0.012

## CAAAAGACGG
  switch fluorescence ratio: 1.04 ± 0.02

## CTAAAACAGG
  switch fluorescence ratio: 1.02 ± 0.03

## ATCGATACTT
  switch fluorescence ratio: 1.067 ± 0.0098

## AGTTTTCTTC
  switch fluorescence ratio: 0.962 ± 0.041

## CATTGGTAAT
  switch fluorescence ratio: 1.018 ± 0.0059

## AATAAGGAGA
  switch fluorescence ratio: 1.01 ± 0.019

## TACAAGGTCA
  switch fluorescence ratio: 1.01 ± 0.0045

## TTTCTGTGCT
  switch fluorescence ratio: 0.97009 ± 7e-05

## CTTGAGTTAG
  switch fluorescence ratio: 1.015 ± 0.0066

## GTTTATAAAC
  switch fluorescence ratio: 0.973 ± 0.064

## CTAAGGCATG
  switch fluorescence ratio: 1.05 ± 0.0013

## AGGAAATTTG
  switch fluorescence ratio: 0.994 ± 0.031

## GCATGGGGGG
  switch fluorescence ratio: 1.02 ± 0.042

## AGAAATAGGA
  switch fluorescence ratio: 1.01 ± 0.035

## TCATGGGTTT
  switch fluorescence ratio: 0.997 ± 0.04

## GCGTTTGCAT
  switch fluorescence ratio: 1.03 ± 0.034

## GAACGGTGGG
  switch fluorescence ratio: 0.976 ± 0.019

## TGCGGGGGAT
  switch fluorescence ratio: 1.02 ± 0.033

## AGGGCGTCTG
  switch fluorescence ratio: 1.01 ± 0.058

## TATCATTTAA
  switch fluorescence ratio: 1.005 ± 0.009

## CTTGGGGCGC
  switch fluorescence ratio: 1.01 ± 0.049

## GGCTAAGAGT
  switch fluorescence ratio: 0.991 ± 0.02

## TCCAGTATGG
  switch fluorescence ratio: 1.012 ± 0.008

## CGTTCATGCG
  switch fluorescence ratio: 0.99 ± 0.032

## TGCTTCCGAA
  switch fluorescence ratio: 1.52 ± 0.082

## GGCTGTGAAC
  switch fluorescence ratio: 1.02 ± 0.023

## TTGCTCTGTT
  switch fluorescence ratio: 0.988 ± 0.023

## ATTGAGTTAT
  switch fluorescence ratio: 0.967 ± 0.019

## TGAAGATATT
  switch fluorescence ratio: 0.993 ± 0.023

## ATCATTCTTC
  switch fluorescence ratio: 0.977 ± 0.034

## GACGACGTTA
  switch fluorescence ratio: 1.55 ± 0.026

## ACTCGCGGGC
  switch fluorescence ratio: 1.98 ± 0.21

## AGAGGCTGTG
  switch fluorescence ratio: 1.01 ± 0.038

## TGGGTTTGCG
  switch fluorescence ratio: 0.982 ± 0.021

## GGACGTTTTG
  switch fluorescence ratio: 0.98 ± 0.012

## ACAATGTGGT
  switch fluorescence ratio: 0.951 ± 0.018

## GTTTCATATG
  switch fluorescence ratio: 1.03 ± 0.047

## CGAAAAAGAT
  switch fluorescence ratio: 1.04 ± 0.079

## TGAAGGGTTG
  switch fluorescence ratio: 1.01 ± 0.026

## ATAGTTCTAC
  switch fluorescence ratio: 0.987 ± 0.0074

## AATCGTCAGG
  switch fluorescence ratio: 1.01 ± 0.012

## TAAGGTTTTG
  switch fluorescence ratio: 1.01 ± 0.022

## TTTAAGTGGG
  switch fluorescence ratio: 1.04 ± 0.14

## TCGGAATAGA
  switch fluorescence ratio: 1.22 ± 0.26

## CGTACTCTCA
  switch fluorescence ratio: 1.037 ± 0.006

## AGACTATGAG
  switch fluorescence ratio: 1.03 ± 0.034

## ACAGAGGGAG
  switch fluorescence ratio: 1.02 ± 0.011

## ATACTTGAAC
  switch fluorescence ratio: 1.034 ± 0.0012

## CTCGCTCGTG
  switch fluorescence ratio: 1.03 ± 0.016

## ACTCAGCTGG
  switch fluorescence ratio: 1.074 ± 0.0069

## GGGTCGGCGA
  switch fluorescence ratio: 1.03 ± 0.011

## AATGTGGGTA
  switch fluorescence ratio: 0.982 ± 0.015

## TGTGGGATAT
  switch fluorescence ratio: 1.05 ± 0.068

## TACTTAGCGA
  switch fluorescence ratio: 1.18 ± 0.044

## TTGGGGTGTT
  switch fluorescence ratio: 1 ± 0.031

## TTAGTTTAAT
  switch fluorescence ratio: 1.02 ± 0.024

## TCGAGGGGAT
  switch fluorescence ratio: 1.01 ± 0.027

## AATAGGGGTA
  switch fluorescence ratio: 0.987 ± 0.029

## TAGAGCACGG
  switch fluorescence ratio: 1.02 ± 0.012

## TGAACGACAG
  switch fluorescence ratio: 1.031 ± 0.0093

## ATGGCCTATA
  switch fluorescence ratio: 1.01 ± 0.028

## CGGGGGAGTA
  switch fluorescence ratio: 0.996 ± 0.018

## AATTAGAGTA
  switch fluorescence ratio: 0.994 ± 0.068

## ATTAATTTTG
  switch fluorescence ratio: 0.992 ± 0.023

## ACTAAATATG
  switch fluorescence ratio: 1.05 ± 0.046

## GAGTAAGTA
  switch fluorescence ratio: 1.002 ± 0.0064

## CGCGATCTGT
  switch fluorescence ratio: 1.18 ± 0.046

## TCCAGCGCGG
  switch fluorescence ratio: 1.14 ± 0.015

## GTTTGTTGGA
  switch fluorescence ratio: 0.967 ± 0.03

## GGTGAATGCG
  switch fluorescence ratio: 0.9779 ± 0.0048

## TGCAATTTTA
  switch fluorescence ratio: 1.03 ± 0.023

## AATCGCAACG
  switch fluorescence ratio: 1.02 ± 0.022
